Source: publication PMC7815104

Target: recombinant soluble canine IL-10 receptor alpha chain (R1), extra-cytoplasmic domain (canine)
Test: SPR; rcasIL-10R1 covalently immobilised (EDC/NHS) on a CM5 chip to 1000 RU, Biacore T100; cytokines in PBS with 0.05% Tween 20 applied for 2 min 30 s; each sample evaluated twice, mean ± SD of RU

RU at 31.2 ng/mL: 211 RU
RU at 125 ng/mL (plateau): 1720 RU
binding equilibrium constant (EC80): 51.4 nM
Substance: recombinant canine IL-10 (from UniProt P48411 20-181) (ligand)
